Data as given in US20200362026A1 (INSTITUTE FOR RESEARCH IN BIOMEDICINE, published 2020).
One block for each binder: values may come before it.

Experiments:
[1] = biological target: T1, human GM-CSF (granulocyte macrophage-colony stimulating factor) (human, UniProt P04141 18-144); assay: ELISA on GM-CSF
T1 construct: Soluble cytokine used in ELISA, SPR, TF-1 bioassay and immune complex formation; also called recombinant GM-CSF

[2] = biological target: T2, FcγRIIa (UniProt P12318 34-317, limits assumed); assay: flow cytometry, TZM-bl cells expressing FcγRIIa, immune complex with low GM-CSF
T2 construct: whole, on cells; also called FcgRIIa; Fcγ receptor IIa
T2 sequence (looked up): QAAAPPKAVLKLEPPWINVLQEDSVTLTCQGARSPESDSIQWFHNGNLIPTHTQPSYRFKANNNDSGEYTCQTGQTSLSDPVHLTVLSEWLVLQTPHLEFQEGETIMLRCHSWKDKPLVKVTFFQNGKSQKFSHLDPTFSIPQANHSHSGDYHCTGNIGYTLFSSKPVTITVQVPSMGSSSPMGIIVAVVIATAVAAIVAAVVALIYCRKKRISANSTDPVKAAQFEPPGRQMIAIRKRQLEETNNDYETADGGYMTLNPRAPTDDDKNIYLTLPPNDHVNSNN
Experimental: (§1) Expression of specific FcγRs was assessed by staining TZM-b1 cells with FITC-conjugated anti-CD64 (anti-FcγRI), anti-CD32 (anti-FcγRIIa and anti-FcγRIIb) and anti-CD16 (anti-FcγRIIIa) antibodies (all from BD Pharmingen). Untrasfected and transfected TZM-b1 cells were washed with staining buffer (PBS with 10% Fetal Bovine Serum and 2 mM EDTA) and seeded in 96-well-plates at a density of 50,000 cells per well. […] The LALA versions of all antibodies and a mAb with a different specificity were included as controls. Samples were incubated at 37° C. for 30 min to allow the formation of immune complexes and then cooled down to 4° C. before adding them to TZM-b1 cells for 30 min. Cells were washed twice and stained with anti-human IgG Fcγ fragment specific F(ab′)2 fragment (Jackson ImmunoResearch). Samples were analyzed on BD FACSCanto (BD Biosciences) and median intensity fluorescence was analyzed and compared between samples.
(§2) To address the engagement of Fcγ receptors, immune complexes formed between GM-CSF and multispecific antibodies were tested for their capacity to bind to TZM-b1 cells expressing FcγRIIa and FcγRIIb receptors. Multispecific antibodies were mixed with 0.05 μg/ml of GM-CSF, or staining buffer. Samples were incubated at 37° C. for 30 min to allow the formation of immune complexes and then cooled down to 4° C. before adding them to TZM-b1 cells for 30 minutes. Cells were washed twice and stained with anti-human IgG Fcγ fragment specific F(ab′)2 fragment. Samples were analyzed on BD FACSCanto (BD Biosciences) and median intensity fluorescence was analyzed and compared between samples.

[3] = biological target: T1, human GM-CSF (granulocyte …); assay: cell-based or functional assay
[4] = biological target: T3, FcγRIIb (UniProt P31994 43-310, limits assumed); assay: flow cytometry, TZM-bl cells expressing FcγRIIb, immune complex with high GM-CSF
T3 construct: whole, on cells; also called FcgRIIb; Fcγ receptor IIb
T3 sequence (looked up): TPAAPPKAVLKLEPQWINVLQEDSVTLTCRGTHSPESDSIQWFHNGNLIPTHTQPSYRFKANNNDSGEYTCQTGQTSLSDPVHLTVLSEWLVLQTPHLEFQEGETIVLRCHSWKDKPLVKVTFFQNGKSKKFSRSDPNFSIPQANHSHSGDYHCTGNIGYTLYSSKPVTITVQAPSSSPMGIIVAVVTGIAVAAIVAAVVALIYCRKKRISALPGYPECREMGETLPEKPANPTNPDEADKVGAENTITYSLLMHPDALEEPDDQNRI
Experimental: as §1, §2

[5] = biological target: T2, FcγRIIa; assay: flow cytometry, TZM-bl FcγRIIa cells; average ratio of binding in presence and in absence of GM-CSF
Experimental: as §2

[6] = biological target: T2, FcγRIIa; assay: flow cytometry, TZM-bl cells expressing FcγRIIa, immune complex with high GM-CSF
Experimental: as §2

[7] = biological target: T1, human GM-CSF (granulocyte …); assay: SPR; GM-CSF injected at 400, 200, 100, 50, 25 nM and buffer over Ts1GC1; 120 s association, 600 s dissociation
Experimental: (§3) The kinetics of binding was determined by surface plasmon resonance (SPR). […] HEPES buffered saline (HBS) (10 mM HEPES, pH 7.4, 150 mM NaCl, 3 mM EDTA, 0.005% surfactant Tween-20) was used as running buffer. All injections were made at flow rate of 100 µl/min. […] Injection time and dissociation time were 120 s and 600 s, respectively. Each binding interaction of mAbs with GM-CSF was assessed using a ProteON XPR36 instrument (Biorad) and data processed with ProteOn Manager Software. Ka, Kd and KD were calculated applying the Langmuir fit model.
All multispecific antibodies were tested for binding to GM-CSF by ELISA.

[8] = biological target: T3, FcγRIIb; assay: flow cytometry, TZM-bl FcγRIIb cells; average ratio of binding in presence and in absence of GM-CSF
Experimental: as §1, §2

[9] = biological target: T2, FcγRIIa; assay: flow cytometry, TZM-bl cells expressing FcγRIIa, mAb alone (w/o GM-CSF)
Experimental: as §1, §2

[10] = biological target: T3, FcγRIIb; assay: flow cytometry, TZM-bl cells expressing FcγRIIb, immune complex with low GM-CSF
Experimental: as §1, §2

[11] = biological target: T3, FcγRIIb; assay: flow cytometry, TZM-bl cells expressing FcγRIIb, mAb alone (w/o GM-CSF)
Experimental: as §1, §2

[12] = biological target: T1, human GM-CSF (granulocyte …); assay: SPR (ProteOn), mAb captured on protein A, GM-CSF as analyte, Langmuir fit
Experimental: as §3

[13] = biological target: T1, human GM-CSF (granulocyte …); assay: ELISA on human GM-CSF
Experimental: All antibodies were recombinantly produced as IgG1 by transient transfection of HEK 293 Freestyle Cells (Invitrogen) using polyethylenimine (PEI). The antibodies were then tested for binding to human GM-CSF by ELISA. […] The EC50 values (ng/ml) were determined by ELISA and calculated for every sample by nonlinear regression analysis using GraphPad Prism 5 software.

[14] = biological target: T1, human GM-CSF (granulocyte …); assay: cell-based or functional assay; remark: listed apart in the source

T1 sequence (P04141 18-144 limits assumed): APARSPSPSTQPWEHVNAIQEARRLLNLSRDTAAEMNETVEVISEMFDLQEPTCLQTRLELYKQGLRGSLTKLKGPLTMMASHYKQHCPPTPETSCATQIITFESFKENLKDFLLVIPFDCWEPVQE

EC50 [1]: 0.027 mg/L | MFI [2]: 118000 MFI | IC90 less stringent conditions (50 pg/ml GM-CSF, 1,000 TF-1/well) [3]: 0.000352 mg/L | IC90 more stringent conditions (500 pg/ml GM-CSF, 1,000 TF-1/well) [3]: 0.00296 mg/L | IC90 stringent conditions (50 pg/ml GM-CSF, 10,000 TF-1/well) [3]: 0.000283 mg/L | IC90 very stringent conditions (500 pg/ml GM-CSF, 10,000 TF-1/well) [3]: 0.00281 mg/L | MFI [4]: 1.23e+06 MFI | Average RATIO FcgRIIa [5]: 3.18 ratio | MFI [6]: 216000 MFI | Kd [7]: 0.0875 nM | koff [7]: 3.46e-05 s⁻¹ | kon [7]: 395000 M⁻¹ s⁻¹ | Average RATIO FcgRIIb [8]: 2.51 ratio | MFI [9]: 52400 MFI | MFI [10]: 528000 MFI | MFI [11]: 350000 MFI
B1: Ts1GC1 trispecific antibody (antibody, human IgG1, kappa)
heavy: not shown
light: DIQMTQSPSTLSTSVGDRVTITCRASQNILNWLAWYQQKPGNAPNLLIYKASDLQSGVPSRFSGSGSGTEFTLTISSLQPDDFATYYCQHYNSYPLTFGGGTKVEIKRTVAAPSVFIFPPSDEQLKSGTASVVCLLNNFYPREAKVQWKVDNALQSGNSQESVTEQDSKDSTYSLSSTLTLSKADYEKHKVYACEVTHQGLSSPVTKSFNRGEC
notes: Trispecific hexavalent IgG1, construct type Ts1; specificities GCA21 + GCA7 + GCB59; also called TsGC1

Kd [12]: 0.24 nM | koff [12]: 7.7e-05 s⁻¹ | kon [12]: 310000 M⁻¹ s⁻¹ | IC90 less stringent conditions (50 pg/ml GM-CSF, 1,000 TF-1/well) [3]: 0.177 mg/L | IC90 more stringent conditions (500 pg/ml GM-CSF, 1,000 TF-1/well) [3]: 1.97 mg/L | IC90 stringent conditions (50 pg/ml GM-CSF, 10,000 TF-1/well) [3]: 0.798 mg/L | IC90 very stringent conditions (500 pg/ml GM-CSF, 10,000 TF-1/well) [3]: 19.8 mg/L | EC50 [13]: 0.0753 mg/L | fold greater concentration than Ts1GC2a, less stringent conditions [14]: 690 fold
B2: Namilumab (antibody, V domains shown)
VH: QVQLVQSGAEVKKPGASVKVSCKAFGYPFTDYLLHWVRQAPGQGLEWVGWLNPYSGDTNYAQKFQGRVTMTRDTSISTAYMELSRLRSDDTAVYYCTRTTLISVYFDYWGQGTMVTVSS
VL: DIQMTQSPSSVSASVGDRVTIACRASQNIRNILNWYQQRPGKAPQLLIYAASNLQSGVPSRFSGSGSGTDFTLTINSLQPEDFATYYCQQSYSMPRTFGGGTKLEIK
